Data as given in paper PMC8232910.

Target: EccD5 (Mycobacterium xenopi ESX-5 type VII secretion system) (Mycobacterium xenopi)
Assay: cryo-EM structure; purified ESX-5 complex (void peak fraction) in 20 mM tris (pH 8), 150 mM NaCl; C6 global map 3.4 Å and locally refined map of the cytosolic part 3.0 Å; de novo atomic model of the transmembrane and membrane-adjacent cytoplasmic regions

EccD5 (Mycobacterium xenopi ESX-5 type VII secretion system) (natural protein)
stoichiometry N: 2
